Experimental data reported in US6018021.

How the values were obtained:
[1] = molecular target: full-length recombinant TAL-H protein (38 kDa), cleaved with thrombin from a GST fusion protein (human)
[2] = molecular target: purified human myelin basic protein (18.5 kDa) (human) (UniProt P02686)
[3] = molecular target: full-length recombinant TAL-H protein (38 kDa), cleaved with thrombin from a GST fusion protein (human); remark: listed apart in the source
[4] = molecular target: tetanus toxoid (Clostridium tetani (strain Massachusetts / E88)) (UniProt P04958)

| Substance | 3H-TdR incorporation, Stimulation Index (S.I.) [1] | Stimulation Index [2] | Stimulation Index [3] | Stimulation Index [4] |
| --- | --- | --- | --- | --- |
| peripheral blood lymphocytes of control donor sixteen (cells without a defined receptor) | 1.4 S.I. |  |  |  |
| peripheral blood lymphocytes of MS patient thirteen (cells without a defined receptor) |  | 2.25 S.I. | 3.95 S.I. | 0.79 S.I. |
| peripheral blood lymphocytes of MS patient one (cells without a defined receptor) |  | 0.89 S.I. | 1.81 S.I. | 0.8 S.I. |
| peripheral blood lymphocytes of MS patient twelve (cells without a defined receptor) | 3.1 S.I. |  |  |  |
| peripheral blood lymphocytes of control donor PEG (cells without a defined receptor) | 0.7 S.I. |  |  |  |
| peripheral blood lymphocytes of MS patient fifteen (cells without a defined receptor) |  | 1.53 S.I. | 4.61 S.I. | 0.96 S.I. |
| peripheral blood lymphocytes of control donor PRO (cells without a defined receptor) | 1 S.I. |  |  |  |
| peripheral blood lymphocytes of MS patient four (cells without a defined receptor) | 2.7 S.I. |  |  |  |
| peripheral blood lymphocytes of MS patient seventeen (cells without a defined receptor) |  | 3.01 S.I. | 6.47 S.I. | 3.81 S.I. |
| peripheral blood lymphocytes of MS patient two (cells without a defined receptor) | 4.7 S.I. |  |  |  |

Now from value to substance, other results behind:

| 3H-TdR incorporation, Stimulation Index (S.I.) [1] | Substance | Stimulation Index [2] | Stimulation Index [3] | Stimulation Index [4] |
| --- | --- | --- | --- | --- |
| 2.9 S.I. | peripheral blood lymphocytes of MS patient six (cells without a defined receptor) |  |  |  |
| 7.1 S.I. | peripheral blood lymphocytes of MS patient fourteen (cells without a defined receptor) |  |  |  |
| 1.4 S.I. | peripheral blood lymphocytes of MS patient seven (cells without a defined receptor) |  |  |  |
| 4.5 S.I. | peripheral blood lymphocytes of MS patient eight (cells without a defined receptor) |  |  |  |
| 2.3 S.I. | peripheral blood lymphocytes of control donor ten (cells without a defined receptor) |  |  |  |
| 3.1 S.I. | peripheral blood lymphocytes of MS patient nine (cells without a defined receptor) |  |  |  |
| 1 S.I. | peripheral blood lymphocytes of control donor three (cells without a defined receptor) |  |  |  |
| 3.3 S.I. | peripheral blood lymphocytes of MS patient five (cells without a defined receptor) |  |  |  |
| 10.3 S.I. | peripheral blood lymphocytes of MS patient eleven (cells without a defined receptor) |  |  |  |
